Results from the RNAGym collection of RNA variant scans (doi:10.1073/pnas.2313332121).
Variants at the floor of the assay were thinned out.

B1: TPR 5TU (parent)
chain: GGAUCUUCUCGAUCUAACAAAAAAGACAAAUCUGCCACAAAGCUUGAGAGCAUCUUCGGAUGCAGAGGCGGCAGCCUUCGGUGGCGCGAUAGCGCCAACGUUCUCAACUAUGACACGCAAAACGCGUGCUCCGUUGAAUGGAGUUUAUCAUG

Variants of: B1
Assay: polymerase ribozyme fitness, log enrichment relative to wild type (log ratio); higher = more active; in vitro selection for triplet polymerase activity
In short: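 Fitness is a logarithmic measure of how a genotype enriched relative to the wild type, with replicate averages weighted by inverse variance. The logarithm uses base 2, and enrichment came from Illumina sequencing of input and output libraries. Those libraries were PCR-built, transcribed mutants of each subunit of a heterodimeric triplet polymerase ribozyme, passed through one triplicate in vitro selection round that included frozen incubation at −7 °C, gel excision of extended constructs and streptavidin-bead capture. Genotypes were kept only if they had ≥10 input reads and ≥1 read per output.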

Going from GGAUCUUCUCGAUCUCACAAAAAAGACAAAUCUGCCACACAGCUUGAGAGCAUCUUCGAAUGCAGAGGCGGCAGCCUUCGGUGGCGCGAUAGUGCCAACGUUCUCGACUAUGACACGCAAAACGCGUGCUCCGUUGAAUGGAGUUUAUCAUG [A16C A40C G59A C93U A106G] to GGAUCUUCUCGAUCUAACAGAAAAGACGAAUCUGCCACAAAGCUUGAGAGCAUCUUCGGAUGCAGAGGCGGCAGCCUUCGGUGGCGCGAAAGAGGCAACGUUCUCUACUAUGACACGCAAAAUGCGUGCUCCGUUGAAUGGAGUUUAUCAUG [A20G A28G U90A C93A C95G A106U C123U], the “polymerase ribozyme fitness (log ratio)” value falls from -2.02 to ≤ -4.2.

First: GGAUCUUCUCGAUCUAACAAAAAAUACAAAUCUGCCACAAAGCUUGAGAGCAUCUUCGGAUGCAGAGGCGGCAGCCUUCGGUGGUGCGAUAGCGCCAACGCUCUCAACUAUGACACGCAAAACGCGUGCUCCGUUGAAUGGAGUUUAUCAUG [G25U C85U U101C]
Second: GGAUCUUCUCGAUCUAACAAAAAAGACACAUCUGCCACAAAGCUUGAGUGCCUAUUCGGAUGCAGAGGCGGCAGCCUUCGGUGGCGCGCUAGCGCCAACGUUCUCAACUAUGACACGCAAAAAGCGUGCUCCGUGGAAUCGAGUUUAUCAUG [A29C A49U A52C C54A A89C C123A U135G G140C]
The “polymerase ribozyme fitness (log ratio)” value of the first is higher: -2.41 for the first, ≤ -4.2 for the second.

First: GGAUCUUCUCGAUCUAACAAAAAAGACAAAUCUGGCACAAAGCUUGAGAGCAUCUUCGGAUGCAGAGGCGGCAGCCUUCGGUAGCGCGCUAGCGCCAACGUUCUCAACUAUGACACGCAAAACGCGUGCUCCGUUGAAUGGUGUUUAUCAUG [C35G G83A A89C A142U]
Second: GGAUCUUCUCGAUCUAACAAAAAAGACAAAUCUGCCACAAAGCUUGAGAGCAUCUUAGGAUGCAGAGGCGGCAGCUUUCGGUGGUGCGAUACCGCCAACGUUCUCAACUAUGACACGCAAAACGCCUGCUCCGUUGAAUGGAGUUUAUCAUG [C57A C76U C85U G92C G126C]
The “polymerase ribozyme fitness (log ratio)” value of the first is lower: ≤ -4.2 for the first, -2.15 for the second.

GGAUCGUCUCGAUCUAACAAAAAAGACAAAUCUGCCACAAAGCUUGAGAGCAUCUUCGGAUGCAGAGGCGGCAGCCUUCGGUGGCGCGAUAGCGCCAACAUUCUCAUCUAUGUCACGCAAAACGCGUGCUCCGUUGAAUGGAGUUUAUCAUG [U6G G100A A107U A113U] and GGAUCUUCUCGAUCUAACAAAAAAGACAAAUCUGCCACAAAGCUUGAGAGCAUCUUCGGAUGCAGAGGCGGCAGCCUUAGGUUGCGCGAUAGCGCCAACGUUCUCAACUAUGACACGCAAAACGCGUGCUCCGGUGAAUGGAGUUUAUCAUG [C79A G83U U134G] cannot be ordered by “polymerase ribozyme fitness (log ratio)” value: ≤ -4.2 for the first, ≤ -4.2 for the second.

GGAUCUUCUCGAACUAACAAAAAAGACAAAUCUGCCAUAAAGCUUGAGAGCAUCUUCGGCUGCAGAGGCGGCAGCCUUCGGUCGCGCGAUAGCGCCAACGUUCUCAACUAUGACACGCAAAACGCGUGCUCCGUUGAAUGGAGUUUAUCAUG [U13A C38U A60C G83C] and GGAUCUUCUCGAUCUAACAAAAAAGACAAAUCUGCCACAGAGCUUGAGUGCAUCUUCGGCUGCAGAGGCGGCAGCAUUCGGUGGCGCGAUAGCGCUAACGUUCUCAACUAUGACACGCAAAACGCGUGCUCCGGUGAAUGGAGUUUAUCAUG [A40G A49U A60C C76A C96U U134G] cannot be ordered by “polymerase ribozyme fitness (log ratio)” value: ≤ -4.2 for the first, ≤ -4.2 for the second.

Compared with GGAUCUUCUCGAUCUAACAAAAAAGACAAAUCUGCCACAAAGCUUGAGAGCAACAUCGGAUCCAGAGGCGGCAGCCUUCGGUGGCGCGAUAGCGCCAACGUUCUCAACUAUGACACGCAAAACGCGUGCUCCGUUGAAUGGAGUUUAUCAUG [U53A U55A G62C], GGAUUUUCUCGAUCUAACAAAAAAGACAAAUCUGCCACAAAGCUUGAGAGCAUCUUCGGAUGCCGAGGCGGCAGCCUUCGGUGACGCGAUAGCGCCAACGUUCUCAACUAUGACACGCAAAGCUCGUGCUCCGUUGAAUGGAGGUUAUCAAG [C5U A64C G84A A122G G124U U144G U151A] is lower in “polymerase ribozyme fitness (log ratio)” value: -2.35 for the first, ≤ -4.2 for the second.

Compared with GGAUCUUCUCGAUCUAACAAAAAAGACAAAUCUGCCACAAAGCUUGAGAGUAUCUUCGGAUGCAGAGGCGGCAGCCUUCGGUGGCGCGCUAGCGCUAACGUUCUCAACUAUGACACGCAAAACGCGUGCUCCGUUGAAUGGUGUUUAUCAUG [C51U A89C C96U A142U], GGAUCUUCUCGAUCUAACAAAAAAGACAAAUCUGCCACAAAGCUUGAGAGUGUCUUCGGUUGCAGGGGCGGCAGCCUUCGGUGGCGCGAUAGCGCCAACGUUUUCAUCUAUGAUACGCAAAAGGCGUGCUCCGUUGAAUGGAAUUUAUCAUG [C51U A52G A60U A66G C103U A107U C114U C123G G143A] is lower in “polymerase ribozyme fitness (log ratio)” value: -2.78 for the first, ≤ -4.2 for the second.

GGAUCUUCUCGAUCUAACAAAAAAGACAAAUCUGCCACAAAGUUUGAGAGCAUCUUCGGAUGCAGGGGCGGCAGCCUUCGGUGGCGCGAUAGCGCCAACGUUCUAAACUAUGACACGCAAAACGCGUGCUCCGUUGAAUGGAGUUUAUCAUG [C43U A66G C105A] and GGAUCUUCUCGAUCUGACAAAACAGACAAAUCUGCCACAAAGCUUGAGAGCAUCGUCGGAUGCAGAGGCGGCAGCCUUCGGUGGCGCAAUAGCGCCAACGUUCUCAAAUACGACACGCAAACCGCGUGCUCCGUUGAAUGGAGUUUAUCAUG [A16G A23C U55G G88A C108A U111C A122C] cannot be ordered by “polymerase ribozyme fitness (log ratio)” value: ≤ -4.2 for the first, ≤ -4.2 for the second.

First: GGAUCUUCUCGAUCUAACAAAAAAGACAAAUCUGCCACAAAGCUUGAGAGCAUCUUCGGAUGCAGAGGCAGCAGCCUUCGGUGGCGCGAUAGCGCUAACGUUCUCAACUAUGACACGCAAAACGCGUGCUCCGUUGAAUGGAGUUUAUCAUG [G70A C96U]
Second: GGAUCUUCUCGAUCUAACAAAAAAGACAAAUCUGCCACAAAGCUUGAGAGCAUCUUCGGAUGCAGAGGCGGCAGCCUUCGGUGGCGCGAUAGCGCCAACGUUCUCAACUAUGACACGCACAACGCGUGCUCCGUUUAAUCGAGUUUAUCAUG [A120C G136U G140C]
The “polymerase ribozyme fitness (log ratio)” value of the first is higher: -2.89 for the first, -4.19 for the second.

With GGAUCUUCUCGAUCUAACAAAAAAGACAAAUCUGCCACAAAGCUUGAGAGCAUCUUCGGAUGCAGGGGCGGCAGCCUUCGGUGGCGCGAUACCGACAACGUUUUCAAGUAUGACACGCAAAACGCGUGCUCCGUUGAAUGGAGUUUAUCACG [A66G G92C C95A C103U C108G U151C] the “polymerase ribozyme fitness (log ratio)” value was ≤ -4.2.
